This is an account of results in article PMC7192610.

Where two headings read alike, the source gives them in different places.

The target of data set [1] is T1, GST-p53(1-393) (Homo sapiens, UniProt P04637 1-393). The data set is described as follows: EMSA. A general note: Mobility shift assays separate free from complexed probe on a gel.
Data set [2] concerns the target T1, GST-p53(1-393). Briefly: EMSA. This is another data set of the same source.

T1 sequence (P04637 whole entry): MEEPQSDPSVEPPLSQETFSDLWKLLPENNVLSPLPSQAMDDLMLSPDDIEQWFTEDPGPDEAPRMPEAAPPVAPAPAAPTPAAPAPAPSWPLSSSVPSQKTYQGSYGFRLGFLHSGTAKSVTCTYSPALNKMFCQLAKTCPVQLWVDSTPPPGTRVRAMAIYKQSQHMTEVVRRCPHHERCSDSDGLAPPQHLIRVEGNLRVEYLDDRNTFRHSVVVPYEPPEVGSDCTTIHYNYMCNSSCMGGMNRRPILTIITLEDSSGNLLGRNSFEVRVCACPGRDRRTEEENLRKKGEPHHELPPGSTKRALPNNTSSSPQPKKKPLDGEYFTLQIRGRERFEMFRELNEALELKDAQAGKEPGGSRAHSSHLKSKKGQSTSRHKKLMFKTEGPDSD

B1: CCNG1 WT (dsDNA)
DNA 1: AAACTCTACCGCTGTTGTGAGCACAAGCCCAGGCTAGTCCGAGGCTGGAGGGGCGGAGCC
DNA 2: GGCTCCGCCCCTCCAGCCTCGGACTAGCCTGGGCTTGTGCTCACAACAGCGGTAGAGTTT
For B1, the binding result in the data set with GST-p53(1-393) [1] is reported as “binds”.

B2: CCNG1 L2 (dsDNA)
DNA 1: TACAAGGAGGCTTTTCATCCGCACAAGCCCAGGCTAGTCCGAGGCTGGAGGGGCGGAGCC
DNA 2: GGCTCCGCCCCTCCAGCCTCGGACTAGCCTGGGCTTGTGCGGATGAAAAGCCTCCTTGTA
Consider B2, for which the binding result with GST-p53(1-393) [2] is given as “binds”.
